# Results as given in the nanobody polyreactivity screen of Harvey et al. (2022).
# Test: yeast display, Sf9 membrane polyspecificity reagent, FACS + sequencing; frameworks hold sequencing errors
# Summary of the method: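 Nanobodies from a synthetic yeast display library (Saccharomyces cerevisiae BJ5465), induced 36–48 hours with galactose, were stained 1 hour at 4 °C with 10% biotinylated, detergent-solubilized Sf9 membrane reagent, enriched on streptavidin microbeads, then FACS-sorted. Anti-HA (expression) and streptavidin (reagent binding) fluorescence set low and high (top ~1%) gates. Polyreactivity labels come from the gate of origin. Genes were colony-PCR amplified, MiSeq 2 × 250 sequenced and filtered by CDR length.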
row,Sequence,polyreactivity (PSR sort gate)
1,QVQLLESGGAIVQAGGSHRLSCAASGSIFTHYAMGWYRQATGKERELVAGITSSGGSTYADSVKGRFTISRDNAKNSVYLQMISLKPEDTAVYYCAAEQLRSRLIEYDYWGQGTQVTVSS,low polyreactivity
2,QVQLLESGGGIVQAGGILRLSCAASGITIGWYAMGWYRPAPGKERELVASISSSGSTNYADSVKGLFTISRDNAKNTFYLQMNSMKPEDTAVYYCNKDYLLRHYYIYVIEGDYWGQGTQVTVSS,low polyreactivity
3,QVQLLESGGGLFQAGGSLRLSCAASGYTFSRNAMGWYRTAPGKERELVAANTGSGGSTYYADSVKGRFTISRDNAQNTVYYQMNSLKPEDTAVYYCATEVKRGYVGFDYWGQGTQVTVSS,low polyreactivity
4,QVQLLESGGGLLQAGASLLLSCAASGNIFYRNAMGWYRQAPGKERELVAAISSGGITYYADSVKGRYTISRDNAKNSVSLQMNSLKPEDTAVYYCAAYIRNWRATYEYWGQGSQVTVSS,high polyreactivity
5,QVQLLESGGGLVQAGASLRLSCAASGSICWVYDMGWYRQAPGKERELVAAISQSGGSTYYADSVKGRFTISRDNAKNTVYFQMNSLKPEDTAGYYCAAYVRGQNYDYWGQGTQVTVSS,high polyreactivity
6,QVQLLESGGGLVQAGGRLRLSCADSGGIIAYNAIGWYRQAPAKERELVAAISSSGGRTYYADSVKGRFTISRDNAKITVYLQMNSLKPEDTAVYYFAAVRSGIEYGYWGQGTQVTVSS,high polyreactivity
7,QVQLLESGGGLVQAGGRLRLSCAPSGRSIRYYTMGWYRQAPGKERELVAAISRSGDSTYYADSVKGRFTISRDNEKNTVYVQLKCLIPVDTAVYYCAASLVYQFCYDYWGQGTQVSVSS,high polyreactivity
8,QVQLLESGGGLVQAGGSHRLSCASSGRTFSRYAMGWYRQAPGKERELVAAISYSGGSTYADSVKGRFTISRDNAKNTVYLQMIRLKPEDTAVYYCAAEKYVYWFSYQYGYWGQGTQVSVSS,high polyreactivity
9,QVQLLESGGGLVQAGGSLRFSCAASGFTFPVYAMGWYRQAHGKEREFVAAISWSGGSTSYADSVKGRFTSSRDNAKNTVYLQMNSLKPEDTAVYYCAAEHEQYTQLDYWGQGTQVTVAS,high polyreactivity
10,QVQLLESGGGLVQAGGSLRISCASSVRISPRYAMGWYRQAPGKERELVAAIDTSDGTTYYADSVKGRFTISRDNAMKTVYFQMNSLKPEDTAVYYCAAEGQLFDLYDYWGHGTQVTVSS,low polyreactivity
11,QVQLLESGGGLVQAGGSLRLICAASGLIFGPYTMGWYRQAPGKERELVAAITRSGGRTYYADSVKGRFTISRDNAKNTVYLQMNRLKPEDTAVYYCAAYGGQSWDYDYWGQGTQVTVSS,high polyreactivity
12,QVQLLESGGGLVQAGGSLRLSCAASGFIFSKYAMGWYRQAPGKERELVAGINRSGGSTYYADSVKGRFTISRDNAKNTVYFQMNSLKPEDTAVYYCAAPFGVQSRWYGQSGYWGQGTQVTVSS,high polyreactivity
13,QVQLLESGGGLVQAGGSLRLSCAASGFTFQYYAMGWYRQAPGKERELVAAITRGDSTNYADSVKGRFTISRDNAKNTVYLQMNSLKPEDTAVYYCAAGSAPSYWGGWYYERDYWGQGTQVTVSS,low polyreactivity
14,QVQLLESGGGLVQAGGSLRLSCAASGFTFVYYAMGWYRQAPGKERELVAAISSSGGITYYADSVKGRFTISRDNAKNTVYLQMNSMKPEDTAVYYCAARLWYPYYYWGQGTQVTVSS,high polyreactivity
15,QVQLLESGGGLVQAGGSLRLSCAASGFTFYRYAMGWYRQAPGTERELVAVISRGGNTYYADSVKGRFTISRDNAKNTVYLQMNSLKPEDTAVYDCAVYYPRGVSGGRFTRYDYWGQGTQVTVSS,high polyreactivity
16,QVQLLESGGGLVQAGGSLRLSCAASGITFEHYAMGWYRPAPGKERELVAAITWSGDSTNYADSVKGRFTISRDNAKNTVYLQMNSLNPEDTAVYYCAAYAYAGLYSGTWGYDYWGQGTQVTVSS,low polyreactivity
17,QVQLLESGGGLVQAGGSLRLSCAASGLTFTAYVMGWYRHAPGKERELVAAISGGGSTYADSVKGRFTISGDNAKNTVSLQMNSLKPEDTAVYYCNADGWGDRFWSNFRFDYWGQGTQVTVSS,low polyreactivity
18,QVQLLESGGGLVQAGGSLRLSCAASGLTIWRYAMGWYRQAPGKEREFVATISHNGGRTYYADSVKGRFTISRDNAKNSVYLQMNSLKPEDTAVYYCAADDWRWGYDYWGQGTQVTVSS,high polyreactivity
19,QVQLLESGGGLVQAGGSLRLSCAASGNTFSYYTMGWYRPAPGKERELVAAISASGGSTYYADSVKGRFTISRDNAKNTVYIQMNSLKQEDTAVYYCAASFYIERHRYNYWGHGTQVTVSS,high polyreactivity
20,QVQLLESGGGLVQAGGSLRLSCAASGNTYPVNARGWYRQAPGKERDLVAAISRTGASTYYADSVKGRFTISRDNAKNTVYLQMNSLIPEDTAVYYCAKYLKTPHNRRRVEALGYWGQGTQVTVSS,high polyreactivity
21,QVQLLESGGGLVQAGGSLRLSCAASGRIFNYNAMGWYRQAPGKERELVAAISWDGGSTYYADSVKGRFTISRDNAKNTVYLQMNSLKPEDTAVYYCAARGGSRRFQSQAYSLPRYDYWGQGTQVTVSS,high polyreactivity
22,QVQLLESGGGLVQAGGSLRLSCAASGRIFRRYAMGWYRQAPGKEREFVAAITKSGGSTYYADSVKGRFTISRDNAKNTVYLQMNSLKPEDTAVYYCATYPQYYFRYDYWGQGTQVTVSS,high polyreactivity

row,Sequence,polyreactivity (PSR sort gate)
1,QVQLLESGGGLVQAGGSLRLSCAASGRNFGVNAMGWYRQAPGKERELVAVISSGGSTYYADSVKGRFTISRDNAKNTVFLQMNSLKPEDTAVYYCAAGNLPDYDYWGQGTQVTVSS,low polyreactivity
2,QVQLLESGGGLVQAGGSLRLSCAASGRNFSRYAMGWYRQAPGKERELVAGITRSGTTTYYADSVKGRFTISRDNAKNTVYLQMNSLKPEDTAVYYCAAPPIRPNLYDYWGQGTQVTVSS,high polyreactivity
3,QVQLLESGGGLVQAGGSLRLSCAASGRSYCNNVMGWYRQEPGKERELVAAITFSGTSTYYADSVKVRFTISRDNAKNTVYLQMNSLKPEDTAVYYCAKYRYADYYSPCYDYWGQGTQVTVSS,low polyreactivity
4,QVQLLESGGGLVQAGGSLRLSCAASGRTCRWYAMGWYTQAPWKERELVAAISSSTASTYYADSVKGRFTISRDYAKITVYLQMNSLKPEDSAVYYCAKYYYRFPVCYDYWGLGTQVTVSS,high polyreactivity
5,QVQLLESGGGLVQAGGSLRLSCAASGRTFRRYAMGWYRQAPGKERELVAAISYSGTTTYYADSVKGRFTISRDNAKNTVYLQMNSLKPEDTAVYYCNKATAYGLDYWGQGTQVTVSS,high polyreactivity
6,QVQLLESGGGLVQAGGSLRLSCAASGRTFRVYARGWYRQAPGKEREFVATISVRGGSTYYAYSVKGRFTISRDNAKITVYLQMNSLKPVDTAVYYCARSSRGNLDYWGQGTQVSVSS,low polyreactivity
7,QVQLLESGGGLVQAGGSLRLSCAASGRTFRYYTMGWYRQAPGKEREFVDAISSTGGTYYADSVKGRFTISRDNAKNTVYLQMNCLKPEDTAVYYCAATFIQVVVNVQLYDYDYWGQGTQVTVSS,low polyreactivity
8,QVQLLESGGGLVQAGGSLRLSCAASGRTFTGYVMGWYRQATGKERELVAGISRRGGRTYYADSVKGRFTISRDNAKNTVYLQMNSLKPEDTAVYYCAAAVTSSDPYDYWGQGTQVTVSS,high polyreactivity
9,QVQLLESGGGLVQAGGSLRLSCAASGRTFTSNVMGWYRQAPGKERELVAAISSSGGRTYYADSVKGRFTISRDNAKNTVYLLMNSLKPEDTAVYSCAADGYPEYPRYGYWGQGTQVTVSS,high polyreactivity
10,QVQLLESGGGLVQAGGSLRLSCAASGSIFDGYGMGWYRQAPGKERELVAGITSGGSTYYADSVKGRFTISRDTAKNTVYLQMNSLKPEDTAVYYCATVVRYSNARGDYWGQGTQVTVSS,low polyreactivity
11,QVQLLESGGGLVQAGGSLRLSCAASGSIFYPYAMGWHRQAPGKERELVAAISYSGGSTYYADSVKGSFTISRDNAKNTVYLQMNSLKPEDSAVYYCAASVFRGSATYDSWGQGTHVTVSS,high polyreactivity
12,QVQLLESGGGLVQAGGSLRLSCAASGSNFSSYAMGWSRQAPGTERELVASISRRGGSTYYADSVKGRFTISRDNAKNTVYLQMNSLKPEDTAVYYCNASGGPYRYYYWGQGTQVTVSS,low polyreactivity
13,QVQLLESGGGLVQAGGSLRLSCAASGSTFSYNAMGWYIQAPGKERELVAAIDRSVSTNYADSVKGRFTISRDNAKNTVYLQMNSLKPEDTEVYYCNARHPTDDIVIYDYWGQGTQVTVSS,low polyreactivity
14,QVQLLESGGGLVQAGGSLRLSCAASGSTFTNYAMGWYRQAPGKERELVAAITSGGSTYYADSVKGRCTISRDNAKNTVYLQMNSLKPEDTAVYYCNAVYFSEYDSWGQGTLVTVSS,low polyreactivity
15,QVQLLESGGGLVQAGGSLRLSCAASGSTYSRYDMGWYRPAPGKERELVAAISRSGGSTYYADSVKGRFTISRDNAKNTVYLQMNSLKPEDTAGYYCAAYLPYRQGRYGYEYWGQGTQVNVSS,high polyreactivity
16,QVQLLESGGGLVQAGGSLRLSCAASRRIIYGYAMGWYRQAPGKERELVAAITATYYADSVKGRFTISRDNPKNTVYLLMNSLKAVDTAVYYCNAYLSPKQPLSPQDPTFEGGYWGQCTQVTVSS,low polyreactivity
17,QVQLLESGGGLVQAGGSLRLSCASSGFTFGWYAMGWYRPAPGKERDLVAAISYSGGSTYYADSVKGRFTISRDNAKNTVYLQMNSLKPEDTAVYYCAAKARRPYSYHPYDYWGQGTQVTVSS,high polyreactivity
18,QVQLLESGGGLVQAGGSLRLSCASSGYTIIQYAMGWYRQAPGKERELVAGNTWSGGSTYADSVKGRFTISRDNAKNTVYLQMKSLKQEDTAVYYCAADQEPGKYRFPYARKNNYWGQGTQVTVSS,low polyreactivity
19,QVQLLESGGGLVQAGGSLRLSCDASGSISYHNAMGWYRQAPGKERELVASITSGSSTYYADSVKGSFTISRDNAKNTVYLQMNSLKPEDTAVYYCAAQDYSPYERGRDYWGQGTQVTVSS,low polyreactivity
20,QVQLLESGGGLVQAGGSLRLSCPASGRIFGSYAMRSYRKAPGKERDFVAAISRTGGSTYYADSVKGRFTISRDNAKNTVYLQFTSLKPEDTAVYYCAASYRWRFVRGYYWGQGTQVNVSS,high polyreactivity
21,QVQLLESGGGLVQAGGSLRLSCVASGGILSSNAMGWYRQAPGKERELVAAISSGGSTNYADSVKGRFTISRDNAKNTVYLQMNSLKPDDTAVYYCAADSKIGSFDSWGQGTQVNVSS,low polyreactivity
